Results taken from patent US20180193423A1 (LONGEVITY BIOTECH, published 2018).
Where no end group is shown, it is not given here. [ ]: non-standard residue; d: D form. APC = 3-aminopyrrolidine-4-carboxylic acid; ACPC = 2-aminocyclopentanecarboxylic acid; β3hQ = NC(=O)CC[C@H](N)CC(=O)O; β3hN = NC(=O)C[C@H](N)CC(=O)O; β3hL = CC(C)C[C@H](N)CC(=O)O; β3hK = NCCCC[C@H](N)CC(=O)O; β3hV = CC(C)[C@H](N)CC(=O)O; Aib = CC(C)(N)C(=O)O; βAla = NCCC(=O)O

T1: VPAC1 receptor (UniProt P32241 31-457, limits assumed)
T1 sequence (looked up): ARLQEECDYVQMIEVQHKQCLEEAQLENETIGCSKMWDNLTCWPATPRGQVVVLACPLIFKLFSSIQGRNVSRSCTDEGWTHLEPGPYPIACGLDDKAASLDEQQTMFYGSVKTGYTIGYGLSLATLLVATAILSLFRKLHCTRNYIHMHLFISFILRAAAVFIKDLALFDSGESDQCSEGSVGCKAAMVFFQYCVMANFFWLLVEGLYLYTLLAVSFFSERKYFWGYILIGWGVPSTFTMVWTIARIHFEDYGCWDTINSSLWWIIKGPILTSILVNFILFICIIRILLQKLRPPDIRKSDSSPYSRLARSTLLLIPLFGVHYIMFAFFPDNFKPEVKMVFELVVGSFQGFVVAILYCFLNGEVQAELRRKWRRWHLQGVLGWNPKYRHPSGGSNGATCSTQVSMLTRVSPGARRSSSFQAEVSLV

T2: VPAC2 receptor (UniProt P41587 24-438, limits assumed)
T2 sequence (looked up): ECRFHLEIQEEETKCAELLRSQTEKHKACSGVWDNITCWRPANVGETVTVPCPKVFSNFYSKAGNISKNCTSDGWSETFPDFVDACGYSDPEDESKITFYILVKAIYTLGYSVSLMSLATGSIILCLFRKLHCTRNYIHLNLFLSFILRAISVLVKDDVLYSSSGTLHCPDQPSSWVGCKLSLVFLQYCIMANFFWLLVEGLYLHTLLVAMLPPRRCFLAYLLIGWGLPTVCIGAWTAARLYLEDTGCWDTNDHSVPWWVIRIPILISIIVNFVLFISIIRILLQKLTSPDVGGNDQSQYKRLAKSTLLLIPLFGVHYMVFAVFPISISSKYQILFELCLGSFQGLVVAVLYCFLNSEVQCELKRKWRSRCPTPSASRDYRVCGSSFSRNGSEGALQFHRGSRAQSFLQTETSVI


Experiments:
VPAC1 receptor = biological target: T1, VPAC1 receptor; assay: cell-based or functional assay
VPAC2 receptor = biological target: T2, VPAC2 receptor; assay: cell-based or functional assay

Row | EC 50 vpac1 (Molar), cell-based cAMP assay (VPAC1 receptor) | EC50 vpac2 (Molar), cell-based cAMP assay (VPAC2 receptor) | Binder
1 | > 1000 nM | 1.26 nM | Ac-H[ACPC]DA[β3hV]FTENYTKLRKQ[β3hL]AA[APC]KY[ACPC]NDL[β3hK]KG[βAla]T (not fully specified (C-terminus); printed as Ac-HxDAvFTENYTKLRKQlAAzKYxNDLkKGgT) [LBT-V211]
2 | 293 nM | 1.27 nM | Ac-H[ACPC]DA[β3hV]FTENYTKLR[β3hK]QLAA[APC]KY[ACPC]NDL[β3hK]KG[βAla]T (not fully specified (C-terminus); printed as Ac-HxDAvFTENYTKLRkQLAAzKYxNDLkKGgT) [LBT-V213]
3 | 1530 nM | 3.52 nM | Ac-H[ACPC]DA[β3hV]FTENYTKLRK[β3hQ]LAA[APC]KY[ACPC]NDL[β3hK]KG[βAla]T (not fully specified (C-terminus); printed as Ac-HxDAvFTENYTKLRKqLAAzKYxNDLkKGgT) [LBT-V212]

The next lines start with the binder.

Row | Binder | EC 50 vpac1 (Molar), cell-based cAMP assay (VPAC1 receptor) | EC50 vpac2 (Molar), cell-based cAMP assay (VPAC2 receptor)
4 | Ac-H[Aib]DA[β3hV]FTENYTKLRKQLAA[APC]KY[ACPC]NDL[β3hK]KG[βAla]T (not fully specified (C-terminus); printed as Ac-HBDAvFTENYTKLRKQLAAzKYxNDLkKGgT) [LBT-V205] | > 1000 nM | 0.816 nM
5 | Ac-H[ACPC]DA[ACPC]FTE[ACPC]YTKLRKQLAA[APC]KY[ACPC]NDL[β3hK]KG[βAla]T (not fully specified (C-terminus); printed as Ac-HxDAxFTExYTKLRKQLAAzKYxNDLkKGgT) [LBT-V209] | > 1000 nM | 5.58 nM
6 | Ac-H[ACPC]DA[ACPC]FTENYTKLRKQLAA[APC]KY[ACPC]NDL[β3hK]KG[βAla]T (not fully specified (C-terminus); printed as Ac-HxDAxFTENYTKLRKQLAAzKYxNDLkKGgT) [LBT-V208] | 133 nM | 0.646 nM
7 | Ac-HSDAVFTENYTKLRKQLA[ACPC]KKY[ACPC]ND[β3hL]KKG[βAla]T (not fully specified (C-terminus); printed as Ac-HSDAVFTENYTKLRKQLAxKKYxNDlKKGgT) [LBT-V201] | 9.09 nM | 104 nM
8 | Ac-H[ACPC]DA[β3hV]FTENYTKLRKQLAA[APC]KY[ACPC]NDL[β3hK]KG[βAla]T (not fully specified (C-terminus); printed as Ac-HxDAvFTENYTKLRKQLAAzKYxNDLkKGgT) [LBT-V210] | 1420 nM | 0.859 nM
9 | Ac-H[ACPC]DAVFTENYTKLRKQLAA[APC]KY[ACPC]NDL[β3hK]KG[βAla]T (not fully specified (C-terminus); printed as Ac-HxDAVFTENYTKLRKQLAAzKYxNDLkKGgT) [LBT-V207] | > 1000 nM | 0.593 nM
10 | Ac-H[Aib]DA[β3hV]FTE[β3hN]YTKLRKQLAA[APC]KY[ACPC]NDL[β3hK]KG[βAla]T (not fully specified (C-terminus); printed as Ac-HBDAvFTEnYTKLRKQLAAzKYxNDLkKGgT) [LBT-V206] | > 1000 nM | 3.47 nM
